Values of other authors in PMC1448213.

Molecular target: high affinity NGF receptor (UniProt P35739)
UniProt P35739, sequence (P35739 33-418): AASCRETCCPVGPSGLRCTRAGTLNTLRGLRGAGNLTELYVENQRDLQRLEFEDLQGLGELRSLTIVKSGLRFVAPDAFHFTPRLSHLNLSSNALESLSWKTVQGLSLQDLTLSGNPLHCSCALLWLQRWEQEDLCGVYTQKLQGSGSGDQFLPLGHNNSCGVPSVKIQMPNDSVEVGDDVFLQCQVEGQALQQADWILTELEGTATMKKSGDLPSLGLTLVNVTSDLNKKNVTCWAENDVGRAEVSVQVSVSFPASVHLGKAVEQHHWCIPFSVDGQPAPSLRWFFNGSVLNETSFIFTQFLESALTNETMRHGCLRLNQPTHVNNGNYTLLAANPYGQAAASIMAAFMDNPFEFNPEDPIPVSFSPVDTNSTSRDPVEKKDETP

NGF, sequence (P01139 122-241): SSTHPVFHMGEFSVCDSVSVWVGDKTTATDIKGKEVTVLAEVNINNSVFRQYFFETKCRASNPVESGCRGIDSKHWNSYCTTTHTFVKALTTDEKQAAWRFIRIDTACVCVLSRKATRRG

## NGF (from UniProt P01139)
  Kd: 600 pM
